No end group written: not given here.

The target in data set [1] is human NEMO mutant A323P, FLAG-tagged (human) (UniProt Q9Y6K9). Kind of data set: cell-based or functional assay.
A further data set concerns the target K63 polyubiquitin chains. Description: cell-based or functional assay.
Data set [2] deals with the molecule itself. Kind of data set: gel filtration on Superdex 75, same elution profile as the wild-type CC2-LZ protein.
In data set [3] the target is T1, CC2-LZ domain of NEMO (species and construct not stated for this assay) (Mus musculus (Mouse), UniProt O88522 251-337).
T1 construct: not shown: N-terminal histidine tag and vector residues from pET28
Kind of data set: fluorescence polarisation, N-terminally Fluorescein- or Cy5-labelled peptide, pH 7, ambient temperature, 20 mM Tris-Acetate-MES, 200 mM KCl, 0.5% Tween 20. How it is done: These measurements are carried out at pH 7 and at ambient temperature in a stringent buffer corresponding to 20 mM Tris-Acetate-MES containing 200 mM potassium chloride and 0.5% Tween 20. They are carried out by fluorescence polarisation with the aid of peptides coupled at the N-terminal with the fluorophores Fluorescein or Cy5. For forming the peptide probes of the invention, the peptides can be coupled to any kind of fluorophore.
For orientation: Polarisation of emitted light reports the rotation of a fluorescent probe.

The data set “X-ray crystal structure” concerns the molecule itself. Kind of data set: X-ray crystal structure.

Molecule “human NEMO mutant A323P, FLAG-tagged (from UniProt Q9Y6K9 1-419)” came in with an inhibition of TNFα-dependent activation of the NF-κB pathway (Igκ-luciferase reporter in NEMO-deficient mouse embryo fibroblasts) in data set [1] of 95%. Take “human NEMO mutant F312A, FLAG-tagged (from UniProt Q9Y6K9 1-419)”: in the data set with K63 polyubiquitin chains, the inhibition of TNFα-dependent activation of the NF-κB pathway (Igκ-luciferase reporter in NEMO-deficient mouse embryo fibroblasts) was determined as 78%.

B1: human CC2-LZ domain of NEMO (Tax CC2-LZ, Met 215 to Glu 362) mutant F312A (other)
chain: MERQAASEEKRKLAQLQVAYHQLFQEYDNHIKSSVVGSERKRGMQLEDLKQQLQQAEEALVAKQEVIDKLKEEAEQHKIVMETVPVLKAQADIYKADAQAERQAREKLAEKKELLQEQLEQLQREYSKLKASCQESARIEDMRKRHVE
notes: also called CC2-LZ F312A; not shown: vector-derived tag of pET-28b (protein purified on Ni-NTA)
On to B1, for which the binding result in data set [2] is reported as “binds”.

B2: peptide PH4 (peptide)
peptide: TVAQLKAQHDIYEAEHQAVEHELEKLEEELEYIKEELEQLQREFNKLSG
modifications: also: N-terminal Fluorescein or Cy5
notes: Peptide probe designed from the crystal structure of the CC2-LZ domain
B2: the Kd (as a rule, a measure of binding affinity in units of concentration) in data set [3] was 170 nM.

B3: CC2-LZ domain of murine NEMO (aa 251-337), N-terminal histidine tag (other)
chain: MQLEDLRQQLQQAEEALVAKQELIDKLKEEAEQHKIVMETVPVLKAQADIYKADFQAERHAREKLVEKKEYLQEQLEQLQREFNKLK
notes: Expressed in E. coli BL21-gold (DE3); Forms a parallel coiled-coil dimer in the crystal; also called CC2-LZ protein; Nemo CC2LZ; not shown: N-terminal histidine tag from plasmid pET28
As to B3, in the data set “X-ray crystal structure”, the binding result is on record as “binds”.

B4: peptide P8RD (peptide)
peptide: TVAQLKAQFDIHQAEHQAVKHELEKIEEDFEYIEEQLEQLQREFNKLKSG
modifications: also: N-terminal Fluorescein or Cy5
notes: as for B2
The molecule B4 gave a Kd in data set [3] of 60 nM.

The values are drawn from US20110159598A1 (LES LABORATOIRES SERVIER, published 2011).
